Laboratory results: the nanobody polyreactivity screen of Harvey et al. (2022)

assay: yeast display, Sf9 membrane polyspecificity reagent, FACS + sequencing; frameworks hold sequencing errors
In short: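 Nanobodies from a synthetic yeast display library (Saccharomyces cerevisiae BJ5465), induced 36–48 hours with galactose, were stained 1 hour at 4 °C with 10% biotinylated, detergent-solubilized Sf9 membrane reagent, enriched on streptavidin microbeads, then FACS-sorted. Anti-HA (expression) and streptavidin (reagent binding) fluorescence set low and high (top ~1%) gates. Polyreactivity labels come from the gate of origin. Genes were colony-PCR amplified, MiSeq 2 × 250 sequenced and filtered by CDR length.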

Sequence | polyreactivity (PSR sort gate)
QVQLVETAGGLVQAGGSLRLSSAASRSTFGPYAMGWYSQSPGKERELVAAISRRGTSTYYADSVKGRFTISRDNAKHTVYLQMNSLKPDDTAVYYCNAVTSSFYIRDSDYWGQGNQVTVSS | high polyreactivity
QVQLVETGGCLVQAGGSLPLSCAASGRTFRPYAKGLYRPAPGKERELVAAITRGGSTKYADSVKGRFTISRDNAKNTVYLQMNSLKPEDTAVYYCAPDYSVYHRLFDYWGQGTQVTVSS | high polyreactivity
QVQLVETGGGLDQAGGSLRLSCAASGFTLHRNAKGWYRQAPRKERELVATNSWTGGSTYYADSVKGRFTISRDTAKNTVYLQMNSLKPEDTAVYYCAARGHWSIYGYYYLGATAFGYWGQGTQVTVSS | low polyreactivity
QVQLVETGGGLFQAGGSLRLSCAASGFSFGRYAMGWYRQAPGKERELVAAISRGGSSTYYADSVKGRFTISRDTAKNTVYLQMNSLKPEDTAVYYCNKVIIWARFDYWGQGTQVTVSS | high polyreactivity
QVQLVETGGGLFQAGGSLRLSCAPSGFTFRYNAMGWYRQAPGKERELVAAISWSGGSTYYADSVKGRFTISRDNAKNTVYLQMNSLKPEDTAVYYSNAEYDDYAGEFDYWGQGTQVTGSS | low polyreactivity
QVQLVETGGGLLQAGGSLRISSAASGRIFPSFSMGWYRQAPGKERELVAAITRGGASTYYADSVKGRFTISRDNAKNTVYLQMNSLKPEDTAVYYCAKDAYRYGGLSWTTGMDYWGQGTQVTVSS | high polyreactivity
QVQLVETGGGLLQAGGSLRLSCAASGFTFDFYAMGWYRQAPGKERELVAAINWSGSSTYYADSVKGRFTISRDNAKNTVYLQMNSLKPEDTAVYYCAAQVYYTLFPDVYTMYYWGQGTQVTVSS | high polyreactivity
QVQLVETGGGLVHAGGSLRLSCAASGSIFYAYDMGWYRQAPGKERELVAAINWSGDSTYYADSVKGRVTISRDNANNTVYLQMNSLKPEDTAVYYCAAVSGSGDSGEYDYWGQGTQVTVSS | low polyreactivity
QVQLVETGGGLVHAGGSLRLSCAASGSILRPNAMGWYRQAPGKERELVAAITTSGGSTYYADSVKGRFTISRDNAKNTVYLQMNSLKPEDTAVYYCAAEYVYYYYLYLYYYWGQGTQVTVSS | high polyreactivity
QVQLVETGGGLVHAGGSLRLSSAASGRTFVENDMGWYRQAPGKERELVAAITYRGGRTFYADSVKGSFTISRDNAKNTVYLQMNSRKPEDTAVYSCNAVRRTGGHGVYWGQGTQVTVSS | high polyreactivity
QVQLVETGGGLVQAGGILLLSCAASRIIFPWYTMGWYRQAPGKERELVAAINYSSGDTYADSVKGRFTISRDNAKNTVYLQMNSLKPEDTAVYYCDAEDPEYATYWYKYGYWGLGTQVTVSS | low polyreactivity
QVQLVETGGGLVQAGGILRLSCAASGSIFKAYAMGWYRQAPGKERELVAAITWSGGSTYYADSVKGRFTNSRDNAKNTVYLQMNSLKPEDTAVYYCAATLGLWAYYLYDYWGQGTQVTVSS | low polyreactivity
QVQLVETGGGLVQAGGILRLSCAASGSTFYRNAMGWYRQAPGKERELVAAINSTDSTNYADSVKGRFTISRDNAKNTVYLQMNSLKPEDTAVYFCAAVGVNLATAEYDYWGQGTQVTVSS | low polyreactivity
QVQLVETGGGLVQAGGILRLSCAATGSIFKAYDMGWYRKAPAKERELVAAITWSGGSTYYADSVKGRFTISRHNAKNTVYLQMNSLKPEDTAVYYCAAKLGLWAYYLYDYWGQGTQVTVSS | low polyreactivity
QVQLVETGGGLVQAGGSHSLSCAAAGSTFSRYAMGWYRQAPGTETELVAGISWSGGNTYYADSVKGRVTISRDNAKNTVYLQMNSLKPEETAVYYCAADFLEYWVVYGWAEYEYWAQGTQVTVSS | low polyreactivity
QVQLVETGGGLVQAGGSIRLTCAASGLTYTGNAIVWSRQAPGKEMECVAAIRWSAGSTYYADSVKGRFTISRDNAKNTVYLQMNSLKPEDTAVYYCNAALNVSGHYPNDYWGQGTQVTVSS | low polyreactivity
QVQLVETGGGLVQAGGSLRISCAASGGIFVFYAMGWYRQAPGKERELVAAISWSGTSTYYADSVKGGFTISRDNAKYTVYLQMNRLKPEDTAVYYCAALYPYQYVRGGYWGQGTQVTVSS | high polyreactivity
QVQLVETGGGLVQAGGSLRISCAASGRIFGVYAMGWYRQAPGKERELVAAITRGASTYYADSVKGRFTISRDNAKNTVYLQMNILKPEDTAVYYCAVSQYRGIYRKYDYWGQGTQVTVSS | high polyreactivity
QVQLVETGGGLVQAGGSLRLRCAPSGSTFSEYAMGWYRQAPGKERELVPAITSGGITNYADSVKGRFTISRDNSKNTVYFKMNSLKPEDTAVYYCNTQDVYGDPVESLVDYDYWGQGTQVTVSS | high polyreactivity
QVQLVETGGGLVQAGGSLRLSCAASGFIFYNAMGWYRQAPGKERELVAAISSGGNTNYADSVKGRFTISRDNAKNTVYLQMNSLKPEDTAVYYCNAGLYQYEAWAYYIRYDYWGQGTQVTVSS | low polyreactivity
QVQLVETGGGLVQAGGSLRLSCAASGGIFEINVMGWYRQAPGKERELVAGINWSGTSTYFADSVKGRFTISRDNAKNTVYLQMNTLTPEDTSVYYCAAESYYRYVVPYDYWGQGTQVTVSS | high polyreactivity
QVQLVETGGGLVQAGGSLRLSCAASGIIFDGNTMGWYRQAPGKERELVAGIDFSDDSTNYADSVKGRFTISRDNAKNTVYLQMNSLKPEDTAVYYCAADTRSPSAHEVDYWGQGTQVTVSS | low polyreactivity
QVQLVETGGGLVQAGGSLRLSCAASGIIFSRYAMGWYRQAPGKERELVAAISTSGGRTFYADSVKGRFTISRDNAKNTVYLQMNSLKPEDTAVYYCAVDDLGWTTGGYLYLYGYWGQGTQVTVSS | high polyreactivity
QVQLVETGGGLVQAGGSLRLSCAASGITFFEYAMGWYRQAPGKERELVAGIRYSGSTTYYSDSVKGRFTISRDNAKNTVYLQMNSLKPEDSAVYYCNVDYYSGLYDYYSWGQGTQVTVSS | low polyreactivity
QVQLVETGGGLVQAGGSLRLSCAASGITFFRNAMGWYRQAPGKERELVAAISRGGGSTYYADSVKGRFTISRDNAKKTVYLQMNSLKPEDTAVYYCAEYKYGTGVKMDYWGQGTQVTVSS | high polyreactivity
QVQLVETGGGLVQAGGSLRLSCAASGRIFRGNTMGWYRQAPGKERELVAAITIRGRTYYADSVKGRFTISRDNAKNTVYLQMNSLKPEDTAVYYCAVASAGDNDYGGQGTQVTVSS | low polyreactivity
QVQLVETGGGLVQAGGSLRLSCAASGRIFVGYAKGWYRQAPGKERELVAAISARGGSTYYADSVKGRFTISRDNAKNTVYLQMNSLKPEDTAVYYCAADEASSRGYYDYDYWGQGTQVTVSS | low polyreactivity
QVQLVETGGGLVQAGGSLRLSCAASGRTFAYNAMGWYRQAPGKARELVAAITGSGGRTYYADSVKGRFTISRDNAKNTVYLQMNSLKPEETAVYYCAAEGPEIKYYYWGQGTQVTVSL | low polyreactivity
QVQLVETGGGLVQAGGSLRLSCAASGRTFAYYAMGWYRQAPGKERELVAAISSGGRTNYADSVKGLFTISRDNAKNTVYLQMNSLKPEDTAVYYCAAVRWVYPRRYYYWGQGTQVTVSS | high polyreactivity
QVQLVETGGGLVQAGGSLRLSCAASGRTFEYNAMGWYRQAPGKERELVATIRYSGTSTYADSVKGRFTISRDNAKNPVYLQMNSQKPEDTAVYYCAKQVRYYGYKYNYWGQGTQVTVSS | high polyreactivity
